# B1: HA-tagged Marburgvirus (Marburg Musoke) nucleoprotein, polymeric (natural protein)
# chain: MDLHSLLELGTKPTAPHVRNKKVILFDTNHQVSICNQIIDAINSGIDLGDLLEGGLLTLCVEHYYNSDKDKFNTSPVAKYLRDAGYEFDVIKNADATRFLDVSPNEPHYSPLILALKTLESTESQRGRIGLFLSFCSLFLPKLVVGDRASIEKALRQVTVHQEQGIVTYPNHWLTTGHMKVIFGILRSSFILKFVLIHQGVNLVTGHDAYDSIISNSVGQTRFSGLLIVKTVLEFILQKTDSGVTLHPLVRTSKVKNEVASFKQALSNLARHGEYAPFARVLNLSGINNLEHGLYPQLSAIALGVATAHGSTLAGVNVGEQYQQLREAAHDAEVKLQRRHEHQEIQAIAEDDEERKILEQFHLQKTEITHSQTLAVLSQKREKLARLAAEIENNIVEDQGFKQSQNRVSQSFLNDPTPVEVTVQARPMNRPTALPPPVDDKIEHESTEDSSSSSSFVDLNDPFALLNEDEDTLDDSVMIPGTTSREFQGIPEPPRQSQDLNNSQGKQEDESTNRIKKQFLRYQELPPVQEDDESEYTTDSQESIDQPGSDNEQGVDLPPPPLYAQEKRQDPIQHPAANPQDPFGSIGDVNGDILEPIRSPSSPSAPQEDTRMREAYELSPDFTNDEDNQQNWPQRVVTKKGRTFLYPNDLLQTNPPESLITALVEEYQNPVSAKELQADWPDMSFDERRHVAMNL
# notes: also called MARV HA-NP; HA-NP
# B2: anti-MARV NP sdAb A monomer (pecan126) (VHH)
# VHH: EVKLQESGGGLVQAGESLRLSCAVPPEVFDIRTVAWYRQVPLGKGRELLSSITPWNKTTYEDSVKDRFTISRDNAKYTVYLQMNDLKPEDTAVYYCAQGWGIASMRYWGQGTQVTVSS
# notes: also called anti-MARV sdAb A; source: E. coli HBV88 periplasm, purified (IMAC, gel filtration)
# B3: anti-MARV NP sdAb C monomer (pecan126) (VHH)
# VHH: KVQLQESGGGLVQVGGSLRLSCKASGFTFRSSAMGWYRRAPGKQRELVASLTTTGTADYGDFVKGRFTISRDNAENTVDLHMNSLKPEDTAVYYCHEDPYGMESLRYWGQGTQVTVSS
# notes: also called anti-MARV sdAb C; source: E. coli HBV88 periplasm, purified (IMAC, gel filtration)
# B4: anti-MARV NP sdAb B monomer (pecan126) (VHH)
# VHH: KVQLQESGGGLVQAGGSLRLSCAASGGTFSINTLGWYRRAPGKEREFVARISSGGITRYADSVKGRFTISRDNGKNTVYLDMNSLKPEDTAVYYCMYRNWGGGLDVYWGQGTQVTVSS
# notes: also called anti-MARV sdAb B; source: E. coli HBV88 periplasm, purified (IMAC, gel filtration)
# What was measured:
# [1] = biological target: the molecule itself; assay: transmission electron microscopy of HA-NP and sdAb mixtures
# [2] = biological target: T1, Marburgvirus (Marburg Musoke) nucleoprotein, polymeric (Marburg virus, Musoke, UniProt P27588); assay: ELISA; conditions: both partners purified
# T1 construct: source: HEK 293T, transient transfection, purified (CsCl gradient)
Binder,binding result [1],binding result [2]
B1,binds,
B2,,binds
B3,,binds
B4,,binds

# Source: paper PMC5623874 (Frontiers in Immunology, 2017)
